Measurements from article PMC9482650, “Quantitative fragmentomics allow affinity mapping of interactomes” (Nature Communications, 2022).

Experiments:
Assay in all cases: holdup assay
Set-up in all cases: key: below the threshold = too weak to quantify, mostly under pKd 3.1 to 4
[1] = biological target: LNX1_1, Q8TBB1
[2] = biological target: T1, PDZD7_3, Q9H5P4
T1 sequence (Q9H5P4 857-944, limits assumed, looked up): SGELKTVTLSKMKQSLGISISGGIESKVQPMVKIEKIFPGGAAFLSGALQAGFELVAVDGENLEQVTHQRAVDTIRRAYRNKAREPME

[3] = biological target: DLG4_2, P78352
Sequence of DLG4_2, P78352 (P78352 155-259): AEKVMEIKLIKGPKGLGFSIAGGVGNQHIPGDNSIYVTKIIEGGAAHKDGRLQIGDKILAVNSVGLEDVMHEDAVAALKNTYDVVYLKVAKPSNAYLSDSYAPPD

[4] = biological target: T2, APBA3_1, O96018
T2 sequence (O96018 389-490, limits assumed, looked up): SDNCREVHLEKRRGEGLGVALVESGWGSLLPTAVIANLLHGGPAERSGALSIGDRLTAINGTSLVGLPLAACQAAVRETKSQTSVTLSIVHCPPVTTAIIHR

[5] = biological target: T3, RAPGEF6, Q8TEU7
T3 sequence (Q8TEU7 525-625, limits assumed, looked up): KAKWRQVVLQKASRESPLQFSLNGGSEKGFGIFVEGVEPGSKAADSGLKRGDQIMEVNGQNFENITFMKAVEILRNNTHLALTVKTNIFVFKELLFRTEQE

[6] = biological target: DLG4_3, P78352
Sequence of DLG4_3, P78352 (P78352 306-403): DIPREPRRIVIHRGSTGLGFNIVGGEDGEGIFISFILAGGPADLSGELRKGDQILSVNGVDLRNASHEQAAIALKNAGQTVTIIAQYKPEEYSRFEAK

[7] = biological target: Inadl_3, Q8NI35
Sequence of Inadl_3, Q8NI35 (Q8NI35 359-469): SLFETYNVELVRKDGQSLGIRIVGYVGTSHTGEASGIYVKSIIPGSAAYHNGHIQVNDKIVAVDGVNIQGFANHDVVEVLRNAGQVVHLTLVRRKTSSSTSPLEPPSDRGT

[8] = biological target: T4, GRIP1_5, Q9Y3R0
T4 sequence (Q9Y3R0 568-668, limits assumed, looked up): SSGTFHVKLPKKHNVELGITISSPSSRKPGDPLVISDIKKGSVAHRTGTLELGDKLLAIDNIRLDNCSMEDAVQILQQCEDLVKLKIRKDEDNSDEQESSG

[9] = biological target: MAGI2_5, Q86UL8
Sequence of MAGI2_5, Q86UL8 (Q86UL8 915-1017): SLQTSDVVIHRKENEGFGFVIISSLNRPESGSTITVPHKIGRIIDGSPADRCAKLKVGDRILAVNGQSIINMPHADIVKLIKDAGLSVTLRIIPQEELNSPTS

[10] = biological target: T5, HTRA4, P83105
T5 sequence (P83105 378-476, limits assumed, looked up): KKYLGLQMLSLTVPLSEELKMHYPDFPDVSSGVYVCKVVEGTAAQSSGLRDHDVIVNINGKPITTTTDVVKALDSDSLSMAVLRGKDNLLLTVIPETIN

[11] = biological target: T6, MPDZ_12, O75970
T6 sequence (O75970 1857-1958, limits assumed, looked up): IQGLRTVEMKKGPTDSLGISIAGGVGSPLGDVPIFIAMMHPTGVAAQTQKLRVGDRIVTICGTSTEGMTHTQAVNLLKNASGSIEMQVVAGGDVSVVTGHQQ

[12] = biological target: T7, SHANK1, Q9Y566
T7 sequence (Q9Y566 658-767, limits assumed, looked up): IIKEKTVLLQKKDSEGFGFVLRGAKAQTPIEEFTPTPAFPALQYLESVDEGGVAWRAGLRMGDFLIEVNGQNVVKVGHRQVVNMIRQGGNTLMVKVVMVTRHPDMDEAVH

[13] = biological target: DLG1_1, Q12959
[14] = biological target: Inadl_9, Q8NI35
Sequence of Inadl_9, Q8NI35 (Q8NI35 1530-1615): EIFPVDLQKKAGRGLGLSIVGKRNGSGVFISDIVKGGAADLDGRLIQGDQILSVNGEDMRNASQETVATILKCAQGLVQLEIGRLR

[15] = biological target: FRMPD4, Q14CM0
Sequence of FRMPD4, Q14CM0 (Q14CM0 67-160): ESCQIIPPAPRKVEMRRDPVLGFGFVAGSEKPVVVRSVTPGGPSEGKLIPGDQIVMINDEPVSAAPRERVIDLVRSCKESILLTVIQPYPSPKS

[16] = biological target: MAGI2_6, Q86UL8
Sequence of MAGI2_6, Q86UL8 (Q86UL8 1141-1229): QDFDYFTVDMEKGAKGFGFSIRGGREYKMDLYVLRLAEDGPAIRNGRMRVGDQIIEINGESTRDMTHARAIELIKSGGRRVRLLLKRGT

[17] = biological target: Inadl_1, Q8NI35
Sequence of Inadl_1, Q8NI35 (Q8NI35 113-229): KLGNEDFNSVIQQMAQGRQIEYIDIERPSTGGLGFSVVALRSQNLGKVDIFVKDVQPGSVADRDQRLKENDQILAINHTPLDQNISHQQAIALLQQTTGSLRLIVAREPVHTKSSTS

[18] = biological target: T8, APBA2_2, Q99767
T8 sequence (Q99767 654-744, limits assumed, looked up): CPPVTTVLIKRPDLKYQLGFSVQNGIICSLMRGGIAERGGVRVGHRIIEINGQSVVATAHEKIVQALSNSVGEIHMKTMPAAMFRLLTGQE

[19] = biological target: LIMK2, P53671
Sequence of LIMK2, P53671 (P53671 143-248): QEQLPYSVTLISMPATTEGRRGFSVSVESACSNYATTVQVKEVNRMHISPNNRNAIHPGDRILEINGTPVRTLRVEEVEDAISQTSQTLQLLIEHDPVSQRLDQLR

[20] = biological target: T9, LNX2_2, Q8N448
T9 sequence (Q8N448 334-432, limits assumed, looked up): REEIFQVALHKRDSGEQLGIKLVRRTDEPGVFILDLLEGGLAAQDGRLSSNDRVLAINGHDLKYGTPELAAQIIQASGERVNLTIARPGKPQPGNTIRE

[21] = biological target: PTPN3, P26045
Sequence of PTPN3, P26045 (P26045 505-587): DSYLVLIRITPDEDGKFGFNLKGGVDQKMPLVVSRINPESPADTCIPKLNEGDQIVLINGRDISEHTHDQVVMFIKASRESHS

[22] = biological target: T10, PTPN13_1, Q12923
T10 sequence (Q12923 1088-1188, limits assumed, looked up): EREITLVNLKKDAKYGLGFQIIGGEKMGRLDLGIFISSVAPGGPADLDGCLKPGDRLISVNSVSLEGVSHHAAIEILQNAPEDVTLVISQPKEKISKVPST

[23] = biological target: PDZRN4_1, Q6ZMN7
Sequence of PDZRN4_1, Q6ZMN7 (Q6ZMN7 213-318): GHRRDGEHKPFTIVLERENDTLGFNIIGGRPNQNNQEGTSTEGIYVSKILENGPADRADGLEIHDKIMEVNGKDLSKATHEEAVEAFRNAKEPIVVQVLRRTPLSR

[24] = biological target: LNX1_2, Q8TBB1
Sequence of LNX1_2, Q8TBB1 (Q8TBB1 371-470): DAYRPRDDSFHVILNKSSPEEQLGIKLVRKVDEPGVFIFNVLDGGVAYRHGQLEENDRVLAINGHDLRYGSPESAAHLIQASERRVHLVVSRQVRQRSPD

[25] = biological target: DLG2_2, Q15700
Sequence of DLG2_2, Q15700 (Q15700 189-283): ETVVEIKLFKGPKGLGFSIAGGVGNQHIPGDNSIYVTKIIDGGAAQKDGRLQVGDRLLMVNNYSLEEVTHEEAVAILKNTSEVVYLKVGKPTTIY

[26] = biological target: T11, NHERF3_4, Q5T2W1
T11 sequence (Q5T2W1 373-468, limits assumed, looked up): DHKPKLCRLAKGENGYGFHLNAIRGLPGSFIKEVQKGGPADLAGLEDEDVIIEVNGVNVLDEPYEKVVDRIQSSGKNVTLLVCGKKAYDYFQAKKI

[27] = biological target: AHNAK1, Q09666
Sequence of AHNAK1, Q09666 (Q09666 4-100): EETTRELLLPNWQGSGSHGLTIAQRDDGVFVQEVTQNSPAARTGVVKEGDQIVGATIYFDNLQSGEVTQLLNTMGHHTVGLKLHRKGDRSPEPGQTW

[28] = plain residues with an end cap or a label only (N-terminal biotin on a linker: (peg)3)
[29] = plain residues with an end cap or a label only (N-terminal biotin on a linker: ado-ado)

Sequence of LNX1_1, Q8TBB1 (Q8TBB1 261-371): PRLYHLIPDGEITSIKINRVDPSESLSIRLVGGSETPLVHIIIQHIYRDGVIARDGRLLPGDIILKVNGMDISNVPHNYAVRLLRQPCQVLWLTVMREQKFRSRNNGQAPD

Binder: RRRRSQSRESQC [HBV-HBc, P03193]
- pKd [1, 28]: below the threshold
- pKd [2, 28]: below the threshold
- pKd [3, 28]: 4.3
- pKd [4, 28]: below the threshold
- pKd [5, 28]: below the threshold
- pKd [6, 28]: 4.58
- pKd [7, 28]: below the threshold
- pKd [8, 28]: below the threshold
- pKd [9, 28]: 3.89
- pKd [10, 28]: below the threshold
- pKd [11, 28]: below the threshold
- pKd [12, 28]: below the threshold
- pKd [13, 28]: 4.23
- pKd [14, 28]: below the threshold
- pKd [15, 28]: below the threshold
- pKd [16, 28]: below the threshold
- pKd [17, 28]: below the threshold
- pKd [18, 28]: below the threshold
- pKd [19, 28]: below the threshold
- pKd [20, 28]: below the threshold
- pKd [21, 28]: 4.7
- pKd [22, 28]: below the threshold
- pKd [23, 28]: below the threshold
- pKd [24, 28]: below the threshold
- pKd [25, 28]: 4.22
- pKd [26, 28]: below the threshold
- pKd [27, 28]: below the threshold

Binder: AEASVACSLC [PTGIR, P43119]
- pKd [1, 29]: below the threshold
- pKd [2, 29]: 4.47
- pKd [3, 29]: below the threshold
- pKd [4, 29]: below the threshold
- pKd [5, 29]: below the threshold
- pKd [6, 29]: below the threshold
- pKd [7, 29]: below the threshold
- pKd [8, 29]: below the threshold
- pKd [9, 29]: 4.98
- pKd [10, 29]: below the threshold
- pKd [11, 29]: 3.48
- pKd [12, 29]: 3.65
- pKd [13, 29]: below the threshold
- pKd [14, 29]: below the threshold
- pKd [15, 29]: below the threshold
- pKd [16, 29]: below the threshold
- pKd [17, 29]: below the threshold
- pKd [18, 29]: below the threshold
- pKd [19, 29]: below the threshold
- pKd [20, 29]: 3.78
- pKd [21, 29]: 3.54
- pKd [22, 29]: below the threshold
- pKd [23, 29]: below the threshold
- pKd [24, 29]: 3.68
- pKd [25, 29]: below the threshold
- pKd [26, 29]: below the threshold
- pKd [27, 29]: below the threshold

Binder: DRIQSCLSDA [SBF1, O95248]
- pKd [1, 29]: 3.62
- pKd [2, 29]: below the threshold
- pKd [3, 29]: below the threshold
- pKd [4, 29]: below the threshold
- pKd [5, 29]: below the threshold
- pKd [6, 29]: below the threshold
- pKd [7, 29]: below the threshold
- pKd [8, 29]: below the threshold
- pKd [9, 29]: 3.6
- pKd [10, 29]: below the threshold
- pKd [11, 29]: 3.49
- pKd [12, 29]: below the threshold
- pKd [13, 29]: below the threshold
- pKd [14, 29]: below the threshold
- pKd [15, 29]: below the threshold
- pKd [16, 29]: below the threshold
- pKd [17, 29]: below the threshold
- pKd [18, 29]: 3.48
- pKd [19, 29]: below the threshold
- pKd [20, 29]: below the threshold
- pKd [21, 29]: 4.23
- pKd [22, 29]: 3.49
- pKd [23, 29]: below the threshold
- pKd [24, 29]: below the threshold
- pKd [25, 29]: below the threshold
- pKd [26, 29]: below the threshold
- pKd [27, 29]: below the threshold

Binder: SFISKKEWYV [NECTIN1, Q15223]
- pKd [1, 29]: below the threshold
- pKd [2, 29]: below the threshold
- pKd [3, 29]: 3.73
- pKd [4, 29]: below the threshold
- pKd [5, 29]: below the threshold
- pKd [6, 29]: below the threshold
- pKd [7, 29]: 4.83
- pKd [8, 29]: below the threshold
- pKd [9, 29]: below the threshold
- pKd [10, 29]: below the threshold
- pKd [11, 29]: below the threshold
- pKd [12, 29]: below the threshold
- pKd [13, 29]: 3.6
- pKd [14, 29]: 4.28
- pKd [15, 29]: 3.87
- pKd [16, 29]: 3.56
- pKd [17, 29]: 3.91
- pKd [18, 29]: below the threshold
- pKd [19, 29]: below the threshold
- pKd [20, 29]: 5.05
- pKd [21, 29]: 3.96
- pKd [22, 29]: below the threshold
- pKd [23, 29]: below the threshold
- pKd [24, 29]: 4.46
- pKd [25, 29]: below the threshold
- pKd [26, 29]: below the threshold
- pKd [27, 29]: below the threshold

Binder: LKDDELKTKL [SLCO1A2, P46721]
- pKd [1, 29]: 3.72
- pKd [2, 29]: 4.43
- pKd [3, 29]: below the threshold
- pKd [4, 29]: below the threshold
- pKd [5, 29]: below the threshold
- pKd [6, 29]: below the threshold
- pKd [7, 29]: below the threshold
- pKd [8, 29]: below the threshold
- pKd [9, 29]: 3.75
- pKd [10, 29]: below the threshold
- pKd [11, 29]: below the threshold
- pKd [12, 29]: 5.62
- pKd [13, 29]: below the threshold
- pKd [14, 29]: below the threshold
- pKd [15, 29]: 4.17
- pKd [16, 29]: below the threshold
- pKd [17, 29]: below the threshold
- pKd [18, 29]: below the threshold
- pKd [19, 29]: below the threshold
- pKd [20, 29]: below the threshold
- pKd [21, 29]: below the threshold
- pKd [22, 29]: below the threshold
- pKd [23, 29]: below the threshold
- pKd [24, 29]: below the threshold
- pKd [25, 29]: below the threshold
- pKd [26, 29]: 4.91
- pKd [27, 29]: below the threshold
